Measurements as given in US20240307488A1, “ANNEXIN TO INHIBIT BACTERIA” (priority 2023, published 2024).

What was measured:
E. coli strain BL21(DE3) = assay: dark field light microscopy of antibiotic-driven bacterial filament formation and filament length measurement; format: cell-based
Text: Use of dark field light microscopy to monitor antibiotic-driven bacterial filament formation.
In bright field light microscopy, the filaments formed by bacteria in the presence of beta-lactam antibiotics are difficult to distinguish from “floaters” in the eyes of the microscopist. […] The light micrographs provided herein were all obtained by darkfield light microscopy. […] Therefore, transmission electron microscopy was also used in some cases for visualization of cell ultrastructure.
Darkfield light microscopy of bacterial cultures was performed with a Nikon Labophot microscope (Nikon Instruments, Melville, New York) with a dark field condenser (dry) and an e plan40×/0.65 Nikon objective.
of the inducer IPTG (Isopropyl β-d-1-thiogalactopyranoside). However, protein expression from this plasmid can have significant baseline expression without the inducer. […] Accordingly, all of the imaging and experiments described in this report were performed without adding the inducer, which avoided these problems.
Five ml precultures in LB medium with 200 μg/ml ampicillin were seeded with colonies from LB-ampicillin agar plates and incubated on a rotator overnight at 34 degrees C. […] Slides were rested for 2 to 5 minutes to allow the cells to settle before observation. Nonetheless, the cells were not tightly adherent to the slides and occasionally some cells moved slightly during imaging resulting in a double image. Cultures were checked and micrographs taken at 5 to 20 min intervals for up to 4 hours. Occasionally during this period, the culture tubes were briefly inserted into a Genesys 20 spectrophotometer (Thermospectronic, Rochester, NY) and the absorbance at 600 nm was recorded to measure culture density. The culture tubes have a circular cross section with an inside diameter of 1.3 cm, so the absorbances recorded were approximately 30% higher than would have been measured in a square cuvette with a one cm pathlength.
For preparation of the micrographs in FIGS. 1 through 3 comparing the morphology of the different transformed strains, each test culture (5 ml) was inoculated at the same time with 50 ul of the saturated overnight preculture. For display in the Figures, photographs taken after approximately the same period of growth of each of the parallel cultures were obtained when 20 μl samples provided a microscope image containing a broad sampling of the cell morphologies seen without overcrowding.
The lengths of the bacterial filaments were measured using the Image J program (NIH) with the dark field light micrographs. […] The longest dimension of each cell or filament was taken to represent the “length” for the analysis. Forty to 90 filaments were measured from each of the sub-images in FIGS. 1 and 2.

E. coli BL21(DE3) cells = assay: electron microscopy of cells expressing wild type or mutant annexins A4; format: cell-based; details: 200 μg/ml ampicillin and 4 μg/ml piperacillin; FIG. 4
Text: E. coli samples selected for ultrastructural analysis were processed for electron microscopy using technical support and instrumentation in the Advanced Microscopy Facility at the University of Virginia School of Medicine. The following reagents for electron microscopy were obtained from Electron Microscopy Sciences (Hatfield, PA): sodium cacodylate, propylene oxide, EPON, uranyl acetate, and lead citrate.
One ml samples of cell cultures were pelleted in a microcentrifuge and resuspended in 2.5% glutaraldehyde in 10 mM phosphate buffer (pH7.4) and held overnight at 4 degrees C. The cells were then washed in 0.1 M sodium cacodylate, 2 times, 10 minutes per wash. Then the samples were completely immersed in 1% osmium tetroxide (OsO4) in 0.1 M sodium cacodylate and incubated at room temperature for 1 hour. Following this incubation, the samples were rinsed in 0.1 M sodium cacodylate, 2 times, 10 minutes per wash. Next samples were dehydrated sequentially in 50%, 70%, 95%, 100% ethanol for at least 10 minutes each. Samples were then rinsed in 1:1 ethanol:propylene oxide and incubated for 10 min in the same mixture, then for 10 min in 100% propylene oxide. Following removal of the final propylene oxide, samples were incubated in a 1:1 propylene oxide:EPON mixture overnight, followed with 1:2 propylene oxide:EPON and 1:4 propylene oxide:EPON, 4 hours each. […]

[1] = test system: bovine chromaffin granule (secretory vesicle) membrane; details: from Nelson and Creutz [17], Table 4; cited from earlier work
[2] = E. coli expressing construct, grown in ampicillin (200 μg/ml), FIG. 1
[3] = ampicillin (200 μg/ml) plus piperacillin (4 μg/ml), FIG. 2

Molecule	propensity to promote the formation of long, stable filaments (E. coli strain BL21(DE3); compared with ampicillin and piperacillin)	AVG μm: average length of the measured filaments (E. coli strain BL21(DE3); [2]) [μm]	MAX μm: length of the longest filament in the micrograph (E. coli strain BL21(DE3); [2]) [μm]	optical density (A600) of the cultures with or without the annexin (E. coli strain BL21(DE3); ampicillin (200 μg/ml))	promotion of cytokinesis (grouping of constructs) (E. coli strain BL21(DE3); ampicillin (200 μg/ml))	filament formation (E. coli strain BL21(DE3); ampicillin (200 μg/ml) plus cephalexin (25 μg/ml))	promotion of cytokinesis (grouping of constructs) (E. coli strain BL21(DE3); ampicillin (200 μg/ml) plus piperacillin (4 μg/ml))	AVG μm: average length of the measured filaments (E. coli strain BL21(DE3); [3]) [μm]	MAX μm: length of the longest filament in the micrograph (E. coli strain BL21(DE3); [3]) [μm]	stability of the filaments after tenfold dilution of cephalexin (E. coli strain BL21(DE3); cephalexin reduced from 25 to 2.5 μg/ml after 3 hours 20 minutes, observed for two hours)	relative abundance of short cells and filamentous forms in electron micrographs (E. coli BL21(DE3) cells)	concentration of calcium leading to half-maximal binding to a biological membrane [1]
CC1=C(C(=O)O)N2C(=O)[C@@H](NC(=O)[C@H](N)c3ccccc3)[C@H]2SC1 [cephalexin, reference compound]	greatest propensity to promote the formation of long, stable filaments											
bovine annexin A4 (protein, UniProt P13214 2-319, looked up) Annexin A4: AAKGGTVKAASGFNAAEDAQTLRKAMKGLGTDEDAIINVLAYRSTAQRQEIRTAYKTTIGRDLMDDLKSELSGNFEQVILGMMTPTVLYDVQELRKAMKGAGTDEGCLIEILASRTPEEIRRINQTYQLQYGRSLEDDIRSDTSFMFQRVLVSLSAGGRDESNYLDDALMRQDAQDLYEAGEKKWGTDEVKFLTVLCSRNRNHLLHVFDEYKRIAQKDIEQSIKSETSGSFEDALLAIVKCMRNKSAYFAERLYKSMKGLGTDDDTLIRVMVSRAEIDMLDIRANFKRLYGKSLYSFIKGDTSGDYRKVLLILCGGDD		5.279	15.03	similar	promoted cytokinesis	long filamentous cells were formed	promoted cytokinesis	5.052	9.472	completely stable	number of short cells exceeds the number of extended filamentous forms	5.0×10^−6 M
